Data reported in US20130259873A1.

Legend:
[1] = biological target: high molecular weight melanoma associated antigen (HMW-MAA), also known as CSPG4 (human) (UniProt Q6UVK1); experiment: flow cytometry, melanoma cell line MV3 (BRAF wild type), PE-conjugated anti-mouse IgG
[2] = biological target: high molecular weight melanoma associated antigen (HMW-MAA), also known as CSPG4 (human) (UniProt Q6UVK1); experiment: flow cytometry, melanoma cell line Colo38 (BRAF V600E), PE-conjugated anti-mouse IgG
[3] = biological target: high molecular weight melanoma associated antigen (HMW-MAA), also known as CSPG4 (human) (UniProt Q6UVK1); experiment: flow cytometry, melanoma cell line 677 (BRAF V600E), PE-conjugated anti-mouse IgG
[4] = biological target: high molecular weight melanoma associated antigen (HMW-MAA), also known as CSPG4 (human) (UniProt Q6UVK1); experiment: flow cytometry, melanoma cell line Mel624 (BRAF V600E), PE-conjugated anti-mouse IgG
[5] = biological target: high molecular weight melanoma associated antigen (HMW-MAA), also known as CSPG4 (human) (UniProt Q6UVK1); experiment: flow cytometry, melanoma cell line 836 (BRAF V600E), PE-conjugated anti-mouse IgG
[6] = biological target: high molecular weight melanoma associated antigen (HMW-MAA), also known as CSPG4 (human) (UniProt Q6UVK1); experiment: flow cytometry, melanoma cell line M21 (BRAF V600E), PE-conjugated anti-mouse IgG
[7] = biological target: high molecular weight melanoma associated antigen (HMW-MAA), also known as CSPG4 (human) (UniProt Q6UVK1); experiment: flow cytometry, melanoma cell line M233 (BRAF V600E), PE-conjugated anti-mouse IgG
[8] = biological target: high molecular weight melanoma associated antigen (HMW-MAA), also known as CSPG4 (human) (UniProt Q6UVK1); experiment: flow cytometry, melanoma cell line SK-MEL-28 (BRAF V600E), PE-conjugated anti-mouse IgG
[9] = biological target: high molecular weight melanoma associated antigen (HMW-MAA), also known as CSPG4 (human) (UniProt Q6UVK1); experiment: flow cytometry, melanoma cell line SK-MEL-19 (BRAF V600E), PE-conjugated anti-mouse IgG
[10] = biological target: high molecular weight melanoma associated antigen (HMW-MAA), also known as CSPG4 (human) (UniProt Q6UVK1); experiment: flow cytometry, melanoma cell line 1495 (BRAF V600E), PE-conjugated anti-mouse IgG
[11] = biological target: high molecular weight melanoma associated antigen (HMW-MAA), also known as CSPG4 (human) (UniProt Q6UVK1); experiment: flow cytometry, melanoma cell line 526 (BRAF V600E), PE-conjugated anti-mouse IgG
[12] = biological target: high molecular weight melanoma associated antigen (HMW-MAA), also known as CSPG4 (human) (UniProt Q6UVK1); experiment: flow cytometry, melanoma cell line SK-MEL-5 (BRAF V600E), PE-conjugated anti-mouse IgG
[13] = biological target: high molecular weight melanoma associated antigen (HMW-MAA), also known as CSPG4 (human) (UniProt Q6UVK1); experiment: flow cytometry, melanoma cell line WM1158 (BRAF V600E), PE-conjugated anti-mouse IgG
[14] = biological target: high molecular weight melanoma associated antigen (HMW-MAA), also known as CSPG4 (human) (UniProt Q6UVK1); experiment: flow cytometry, melanoma cell line UACC-257 (BRAF V600E), PE-conjugated anti-mouse IgG
[15] = biological target: high molecular weight melanoma associated antigen (HMW-MAA), also known as CSPG4 (human) (UniProt Q6UVK1); experiment: flow cytometry, melanoma cell line 1287 (BRAF V600E), PE-conjugated anti-mouse IgG
[16] = biological target: high molecular weight melanoma associated antigen (HMW-MAA), also known as CSPG4 (human) (UniProt Q6UVK1); experiment: flow cytometry, melanoma cell line SK-MEL-37 (BRAF V600E), PE-conjugated anti-mouse IgG

Sequence of high molecular weight melanoma associated antigen (HMW-MAA), also known as CSPG4 (human) (Q6UVK1 30-2322): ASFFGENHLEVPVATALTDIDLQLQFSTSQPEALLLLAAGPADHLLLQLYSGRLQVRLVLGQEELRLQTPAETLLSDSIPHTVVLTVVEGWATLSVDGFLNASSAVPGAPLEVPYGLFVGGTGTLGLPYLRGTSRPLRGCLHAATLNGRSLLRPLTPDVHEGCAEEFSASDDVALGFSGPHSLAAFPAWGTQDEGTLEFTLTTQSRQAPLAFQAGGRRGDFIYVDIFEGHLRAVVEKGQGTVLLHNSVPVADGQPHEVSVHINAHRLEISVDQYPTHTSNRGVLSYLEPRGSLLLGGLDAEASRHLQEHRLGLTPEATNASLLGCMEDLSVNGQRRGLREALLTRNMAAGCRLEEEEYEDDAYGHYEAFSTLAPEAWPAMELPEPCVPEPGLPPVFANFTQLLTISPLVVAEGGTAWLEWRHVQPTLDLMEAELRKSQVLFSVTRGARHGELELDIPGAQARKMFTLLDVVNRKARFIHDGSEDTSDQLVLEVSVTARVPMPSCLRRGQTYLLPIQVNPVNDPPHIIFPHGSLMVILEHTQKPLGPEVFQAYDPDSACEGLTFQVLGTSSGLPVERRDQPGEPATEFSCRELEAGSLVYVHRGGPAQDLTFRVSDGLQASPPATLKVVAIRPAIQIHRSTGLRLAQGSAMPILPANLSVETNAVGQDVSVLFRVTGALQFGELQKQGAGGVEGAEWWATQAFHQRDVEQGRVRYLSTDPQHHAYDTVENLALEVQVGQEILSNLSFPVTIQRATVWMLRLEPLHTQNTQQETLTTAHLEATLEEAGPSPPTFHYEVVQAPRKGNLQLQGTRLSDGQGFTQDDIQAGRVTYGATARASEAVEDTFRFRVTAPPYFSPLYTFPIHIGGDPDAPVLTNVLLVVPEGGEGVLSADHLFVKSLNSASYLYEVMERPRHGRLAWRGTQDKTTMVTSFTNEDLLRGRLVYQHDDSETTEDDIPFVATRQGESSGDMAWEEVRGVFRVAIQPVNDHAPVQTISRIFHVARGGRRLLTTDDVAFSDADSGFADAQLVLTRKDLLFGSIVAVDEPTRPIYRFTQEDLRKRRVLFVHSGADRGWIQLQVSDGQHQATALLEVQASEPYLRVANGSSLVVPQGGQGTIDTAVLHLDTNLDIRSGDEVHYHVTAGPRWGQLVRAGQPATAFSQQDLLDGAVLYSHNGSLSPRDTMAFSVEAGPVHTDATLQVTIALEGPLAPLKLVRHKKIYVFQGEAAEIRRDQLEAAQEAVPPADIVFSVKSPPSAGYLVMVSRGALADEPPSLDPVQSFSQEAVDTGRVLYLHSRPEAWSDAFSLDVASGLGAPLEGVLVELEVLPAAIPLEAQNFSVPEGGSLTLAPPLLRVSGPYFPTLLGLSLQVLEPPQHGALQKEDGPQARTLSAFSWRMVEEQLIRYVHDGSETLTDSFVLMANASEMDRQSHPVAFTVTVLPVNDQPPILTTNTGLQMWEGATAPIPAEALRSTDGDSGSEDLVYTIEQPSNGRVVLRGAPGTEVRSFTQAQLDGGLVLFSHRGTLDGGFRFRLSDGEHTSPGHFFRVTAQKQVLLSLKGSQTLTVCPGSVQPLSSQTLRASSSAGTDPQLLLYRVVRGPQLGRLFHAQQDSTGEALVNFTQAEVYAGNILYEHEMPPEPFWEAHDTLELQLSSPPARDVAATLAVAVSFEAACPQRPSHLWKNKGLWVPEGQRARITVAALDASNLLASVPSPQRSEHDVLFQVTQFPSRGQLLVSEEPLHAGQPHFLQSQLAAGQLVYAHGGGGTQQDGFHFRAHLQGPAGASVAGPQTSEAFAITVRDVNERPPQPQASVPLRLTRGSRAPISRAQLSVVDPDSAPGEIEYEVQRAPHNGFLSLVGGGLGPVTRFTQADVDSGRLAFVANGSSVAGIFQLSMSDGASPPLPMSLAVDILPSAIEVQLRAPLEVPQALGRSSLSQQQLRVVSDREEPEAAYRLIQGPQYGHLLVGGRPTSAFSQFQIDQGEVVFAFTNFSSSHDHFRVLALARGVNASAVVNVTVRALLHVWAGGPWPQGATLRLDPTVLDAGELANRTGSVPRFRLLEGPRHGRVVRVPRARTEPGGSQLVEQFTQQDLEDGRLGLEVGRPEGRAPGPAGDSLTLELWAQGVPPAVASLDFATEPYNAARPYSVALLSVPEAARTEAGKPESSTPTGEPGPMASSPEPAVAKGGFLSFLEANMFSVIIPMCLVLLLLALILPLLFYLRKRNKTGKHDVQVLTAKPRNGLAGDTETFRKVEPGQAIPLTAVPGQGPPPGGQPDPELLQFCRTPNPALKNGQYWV

% of cells that express CSPG4 [1]: 99.7%
MFI [1]: 581
% of cells that express CSPG4 [2]: 99.8%
MFI [2]: 493
% of cells that express CSPG4 [3]: 93%
MFI [3]: 55.8
% of cells that express CSPG4 [4]: 88.2%
MFI [4]: 130
% of cells that express CSPG4 [5]: 99.4%
MFI [5]: 1210
% of cells that express CSPG4 [6]: 99.9%
MFI [6]: 917
% of cells that express CSPG4 [7]: 40.8%
MFI [7]: 274
% of cells that express CSPG4 [8]: 99.8%
MFI [8]: 572
% of cells that express CSPG4 [9]: 99.9%
MFI [9]: 607
% of cells that express CSPG4 [10]: 80%
MFI [10]: 437
% of cells that express CSPG4 [11]: 78.4%
MFI [11]: 20.2
% of cells that express CSPG4 [12]: 99.6%
MFI [12]: 275
% of cells that express CSPG4 [13]: 99.8%
MFI [13]: 586
% of cells that express CSPG4 [14]: 99.9%
MFI [14]: 890
% of cells that express CSPG4 [15]: 99.9%
MFI [15]: 117
% of cells that express CSPG4 [16]: 99.9%
MFI [16]: 280
Substance: HMW-MAA (CSPG4)-specific mouse mAb 225.28 (antibody)
